Laboratory results published in article PMC4287557 (PLoS Pathogens, 2015).

Tests used:
[1] = biological target: 16055 gp120 monomer (HIV-1 subtype C strain 16055); assay: BLI; details: both partners purified
[2] = biological target: JRFL gp120 monomer (HIV-1 subtype B strain JRFL, UniProt Q75760); assay: BLI; details: both partners purified

B1: VRC01 IgG (antibody, V domains shown)
VH: QVQLVQSGGQMKKPGESMRISCRASGYEFIDCTLNWIRLAPGKRPEWMGWLKPRGGAVNYARPLQGRVTMTRDVYSDTAFLELRSLTVDDTAVYFCTRGKNCDYNWDFEHWGRGTPVIVSS
VL: EIVLTQSPGTLSLSPGETAIISCRTSQYGSLAWYQQRPGQAPRLVIYSGSTRAAGIPDRFSGSRWGPDYNLTISNLESGDFGVYYCQQYEFFGQGTKVQVD
notes: also called bNAb VRC01
Question: What does the source list for B1?
Answer: binding result [1]: binds; binding result [2]: binds
